This assay deals with Claudin 18.2 (UniProt P56856). As to the kind of experiment: flow cytometry (FACS), cells not given. A general note: In flow cytometry, cells or beads pass a laser one at a time.

B1: RGCLN18.2 antibody (antibody, human IgG1, kappa, V domains shown)
VH: QVQLVQSGAEVKKPGASVKVSCKASGYAFTNYLIEWVRQAPGQGLEWMGLINPGSGGTNYNEKFKGRVTMTRDTSTSTVYMELSSLRSEDTAVYYCARGGYYGNSFAYWGQGTLVTVSS
VL: DIVMTQSPLSLPVTPGEPASISCKSSQSLLNSGNQKNYLTWYLQKPGQSPQLLIYWASTRESGVPDRFSGSGSGTDFTLKISRVEAEDVGVYYCQNAYYYPYTFGGGTKVEIKR
B1: the EC50 came out at 0.166 µg/mL.

A word on the EC50: it is the concentration at which the effect is half-maximal. Low readings indicate greater potency, high ones weaker potency.
